Results reported in paper PMC10320583 (Journal of Structural Biology: X, 2023).

T1: E. coli LptAm-GSGGSGSG-AviTag, biotinylated (E. coli, UniProt P0ADV1 28-158, biotin on the AviTag (BirA biotin-protein ligase))
T1 sequence (looked up): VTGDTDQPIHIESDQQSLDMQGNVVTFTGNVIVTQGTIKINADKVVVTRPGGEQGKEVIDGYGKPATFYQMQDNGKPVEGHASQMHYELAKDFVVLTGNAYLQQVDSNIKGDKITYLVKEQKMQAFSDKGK

B1: E. coli LptAm (truncated monomeric LptA) (domain or fragment, UniProt P0ADV1 28-158, looked up)
chain: T1 sequence (looked up)

Experiments:
[1] = target: E. coli LptAm-GSGGSGSG-AviTag, biotinylated (E. coli) (UniProt P0ADV1)
crystal structure = target: the molecule itself; experiment: crystal structure
[2] = target: T1, E. coli LptAm-GSGGSGSG-AviTag, …; experiment: BLI

Molecule | fold improvement of binding over P. maculiventris thanatin [2] [fold] | other results
Chinavia ubica thanatin (peptide) |  | MIC against E. coli ATCC 25922 [1]: 1.4 µg/mL
Murgantia histrionica thanatin (peptide) |  | MIC against E. coli ATCC 25922 [1]: 1.1 µg/mL
B1 |  | stoichiometry N (crystal structure): 2
GSKKPVPIIYCNRRTGKCQRI (peptide, UniProt P55788 1-21, looked up) [P. maculiventris thanatin M21I] | ~3 | 
GSKKPVPIIACNRRTGKCQRI (peptide, UniProt P55788 1-21, looked up) [P. maculiventris thanatin Y10A/M21I] | ~3 | 
GSKKPVPIIACNRRTGKCQRM (peptide, UniProt P55788 1-21, looked up) [P. maculiventris thanatin Y10A] | ~3 | 
GSKKPVPIIYCNRRTGKCRRM (peptide, UniProt P55788 1-21, looked up) [P. maculiventris thanatin Q19R] | ~3 | 
